# Measurements: patent US11407819B2, “Compositions and use of a fibrinogen binding motif present in EFB and COA for therapeutics and vaccines against Staphylococcus aureus” (priority 2013, dated 2022)
# Target: T1, rEfb-O binding to Fg (Homo sapiens, UniProt P02671+P02675+P02679)
# T1 construct: full-length human Fibrinogen (diluted in PBS, Enzyme research); purchased Enzyme research; host or cells: Efb probe made in E. coli
# T1 sequence (P02671 20-629 limits assumed): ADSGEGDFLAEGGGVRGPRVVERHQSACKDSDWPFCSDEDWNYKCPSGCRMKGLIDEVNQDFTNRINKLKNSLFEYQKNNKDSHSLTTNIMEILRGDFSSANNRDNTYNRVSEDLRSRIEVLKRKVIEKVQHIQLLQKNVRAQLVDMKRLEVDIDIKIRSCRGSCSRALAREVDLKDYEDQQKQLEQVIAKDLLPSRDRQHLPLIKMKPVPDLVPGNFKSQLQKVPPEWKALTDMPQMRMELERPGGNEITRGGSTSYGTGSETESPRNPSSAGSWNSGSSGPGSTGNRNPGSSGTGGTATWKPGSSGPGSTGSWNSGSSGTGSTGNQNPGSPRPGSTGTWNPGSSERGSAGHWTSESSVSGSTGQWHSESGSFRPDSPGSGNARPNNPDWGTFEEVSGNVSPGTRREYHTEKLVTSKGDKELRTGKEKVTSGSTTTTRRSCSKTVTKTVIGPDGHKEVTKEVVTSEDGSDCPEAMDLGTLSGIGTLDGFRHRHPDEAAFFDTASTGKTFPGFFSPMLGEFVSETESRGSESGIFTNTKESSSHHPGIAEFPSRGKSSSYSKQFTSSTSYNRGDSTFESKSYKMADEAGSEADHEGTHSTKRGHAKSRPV
# T1 sequence (P02675 31-491): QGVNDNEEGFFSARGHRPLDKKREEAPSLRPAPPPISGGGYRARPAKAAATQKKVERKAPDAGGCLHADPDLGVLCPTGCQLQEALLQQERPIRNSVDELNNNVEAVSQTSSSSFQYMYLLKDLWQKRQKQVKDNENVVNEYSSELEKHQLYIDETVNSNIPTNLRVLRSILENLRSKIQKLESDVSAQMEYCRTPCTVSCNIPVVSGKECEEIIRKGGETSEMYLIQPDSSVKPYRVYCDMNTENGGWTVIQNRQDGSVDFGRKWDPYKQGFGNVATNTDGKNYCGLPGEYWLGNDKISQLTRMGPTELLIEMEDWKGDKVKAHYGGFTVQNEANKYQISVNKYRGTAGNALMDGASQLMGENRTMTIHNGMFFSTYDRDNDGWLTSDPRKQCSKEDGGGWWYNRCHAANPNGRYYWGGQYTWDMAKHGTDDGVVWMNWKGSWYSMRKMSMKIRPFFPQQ
# T1 sequence (P02679 27-453): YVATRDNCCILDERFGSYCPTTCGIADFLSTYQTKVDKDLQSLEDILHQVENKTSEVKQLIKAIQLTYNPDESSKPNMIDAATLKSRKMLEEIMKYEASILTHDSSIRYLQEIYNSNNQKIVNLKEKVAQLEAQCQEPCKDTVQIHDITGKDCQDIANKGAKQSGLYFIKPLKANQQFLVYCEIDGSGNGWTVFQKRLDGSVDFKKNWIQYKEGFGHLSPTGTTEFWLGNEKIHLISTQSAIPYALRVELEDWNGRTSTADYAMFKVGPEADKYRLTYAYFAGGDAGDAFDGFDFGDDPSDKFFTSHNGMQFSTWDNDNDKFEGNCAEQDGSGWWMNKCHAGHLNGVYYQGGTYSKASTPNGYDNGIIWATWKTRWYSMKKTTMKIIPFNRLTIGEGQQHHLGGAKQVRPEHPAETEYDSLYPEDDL
# Test: Competition ELISA, peptide inhibition of rEfb-O binding to immobilized Fg
# Settings: rEfb-O 5 nM; peptides 2 μM or increasing concentrations
# Experimental: FIG. 10A is a table of the Efb-O variant peptides were synthesized where each residue in the sequence is individually replaced with Ala (or Ser when the native a.a. is Ala). FIG. 10B is a plot of the Efb-O variant peptides inhibit rEfb-O (5 nM) binding to immobilized Fg in solid phase assay. Wells were coated with 0.25 μg/well Fg. Peptides (2 μM) were mixed with rEfb-O proteins (5 nM) and incubated in the Fg wells for 1 hour. FIG. 10C is a plot showing selected peptides inhibit rEfb-O binding to immobilized Fg. Increasing concentrations of Efb peptides were incubated with 5 nM rEfb-O in Fg-coated microtiter wells. To identify the residues in Efb-O that are important for Fg binding an Alanine scanning approach was used. A panel of Efb-O variant peptides were synthesized where each residue in the sequence is individually replaced with Ala (or Ser when the native a.a. is Ala; FIG. 10A). The individual peptides are then examined for their ability to compete with the binding of rEfb-O (5 nM) to immobilized Fg. […]
# In the case of peptide inhibition assay, various concentration of Efb or Coa peptides were mixed with a fixed concentration of Coa-GST or Efb-GST fusion proteins (5-10 nM) in TBS and the bound GST fusion proteins were detected through incubation with HRP-conjugated rabbit anti-GST polyclonal antibodies (5000× dilution). […]
substance,measurement,value
sEfb-O: synthetic peptide mimicking the high affinity Fg-binding motif in Efb (Efb 68-98) (KYIKFKHDYNILEFNDGTFEYGARPQFN),inhibition of rEfb-O binding to immobilized Fg,efficiently blocked
